Data published in publication PMC10148159, “Visualizing the coordination of apurinic/apyrimidinic endonuclease (APE1) and DNA polymerase β during base excision repair”.

Columns and labels:
[1] = target: T1, DNA polymerase beta (Pol β) (Homo sapiens, UniProt P06746 1-335); test: single-molecule TIRF; 2.5 mM EDTA; mean lifetime T2 19.8 s; 50 mM Hepes pH 7.4, 150 mM NaCl, 0.1 mg/ml BSA, 0.8% glucose, 2.5 mM EDTA, ~10 mM Trolox, catalase 0.04 mg/ml, glucose oxidase 1 mg/ml; room temperature; protei
APE1 [2] = target: T2, APE1 (Homo sapiens, UniProt P27695 1-318); test: single-molecule TIRF; 2.5 mM EDTA; mean lifetimes T2 4.3 s, T3 30.9 s; 50 mM Hepes pH 7.4, 150 mM NaCl, 0.1 mg/ml BSA, 0.8% glucose, 2.5 mM EDTA, ~10 mM Trolox, catalase 0.04 mg/ml, glucose oxidase 1 mg/ml; room temperature; protein 0.1 nM (binary) or 1.5 nM each (ternary); details: protein: recombinant; tags: Cy3 NHS ester dye (about 2.1-2.4 labels per protein); label: 5'-biotin on strand 1 (immobilized); blunt outer ends; 1-nt gap opposite G of template
[3] = target: T1, DNA polymerase beta (Pol β); test: single-molecule TIRF; 2.5 mM EDTA; mean lifetimes T2 7.4 s, T3 33.7 s; 50 mM Hepes pH 7.4, 150 mM NaCl, 0.1 mg/ml BSA, 0.8% glucose, 2.5 mM EDTA, ~10 mM Trolox, catalase 0.04 mg/ml, glucose oxidase 1 mg/ml; room temperature; protei
APE1 [4] = target: T2, APE1; test: single-molecule TIRF; 2.5 mM EDTA; mean lifetime T2 12.4 s; 50 mM Hepes pH 7.4, 150 mM NaCl, 0.1 mg/ml BSA, 0.8% glucose, 2.5 mM EDTA, ~10 mM Trolox, catalase 0.04 mg/ml, glucose oxidase 1 mg/ml; room temperature; protein 0.1 nM (binary) or 1.5 nM each (ternary); details: protein: recombinant; tags: Cy3 NHS ester dye (about 2.1-2.4 labels per protein); label: 5'-biotin on strand 1 (immobilized); blunt outer ends; nicked
APE1 [5] = target: T2, APE1; test: single-molecule TIRF; 2.5 mM EDTA; mean lifetime T2 22.8 s; 50 mM Hepes pH 7.4, 150 mM NaCl, 0.1 mg/ml BSA, 0.8% glucose, 2.5 mM EDTA, ~10 mM Trolox, catalase 0.04 mg/ml, glucose oxidase 1 mg/ml; room temperature; protein 0.1 nM (binary) or 1.5 nM each (ternary); details: protein: recombinant; tags: Cy3 NHS ester dye (about 2.1-2.4 labels per protein); label: 5'-biotin on strand 1 (immobilized); blunt

B1: 1-nt gap 25-mer (dsDNA)
DNA 1: TGTGTGGAATACAGTGAGCGCAACG
DNA 2: CGTTGCGCTCA
DNA 3: TGTATTCCACACA
modifications: 5'-phosphate on 13-mer
binding result [1]: binds | binding result (APE1 [2]): binds

B2: 3' nick 25-mer (dsDNA)
DNA 1: TGTGTGGAATACAGTGAGCGCAACG
DNA 2: CGTTGCGCTCAC
DNA 3: TGTATTCCACACA
modifications: 5'-phosphate on 13-mer; 3'-OH on 12-mer
binding result [3]: binds | binding result (APE1 [4]): binds

B3: undamaged DNA 25-mer (dsDNA)
DNA 1: TGTGTGGAATACAGTGAGCGCAACG
DNA 2: CGTTGCGCTCACTGTATTCCACACA
binding result (APE1 [5]): binds
